# Laboratory results reported in PMC3462001.
# Target: Gab1 (UniProt Q9QYY0)
# Assay: co-immunoprecipitation, immunoblot
# Conditions: reference: wild-type PAR3 with PAR1b; sites S144,S873
substance,measurement,value
PAR3 (from UniProt Q8TEW0) PAR3 S144A/S873A with PAR1b,binding against the reference,stronger
